In US20220396635A1 (UNIVERSIT T STUTTGART, published 2022):

B1: scDb/scFv-Fc (1-1)+2, trivalent bispecific anti-HER3×anti-CD3 (bispecific antibody)
chain 1: QVQLQQSGPGLVKPSQTLSLTCAISGDSVSSNRAAWNWIRQSPSRGLEWLGRTYYRSKWYNDYAQSLKSRITINPDTPKNQFSLQLNSVTPEDTAVYYCARDGQLGLDALDIWGQGTMVTVSSGGGGSQAGLTQPPAVSVAPGQTASITCGRDNIGSRSVHWYQQKPGQAPVLVVYDDSDRPAGIPERFSGSNYENTATLTISRVEAGDEADYYCQVWGITSDHVVFGGGTKLTVLGGGGSGGGGSGGGGSQVQLQQSGPGLVKPSQTLSLTCAISGDSVSSNRAAWNWIRQSPSRGLEWLGRTYYRSKWYNDYAQSLKSRITINPDTPKNQFSLQLNSVTPEDTAVYYCARDGQLGLDALDIWGQGTMVTVSSGGGGSQAGLTQPPAVSVAPGQTASITCGRDNIGSRSVHWYQQKPGQAPVLVVYDDSDRPAGIPERFSGSNYENTATLTISRVEAGDEADYYCQVWGITSDHVVFGGGTKLTVLAAADKTHTCPPCPAPPVAGPSVFLFPPKPKDTLMISRTPEVTCVVVDVSHEDPEVKFNWYVDGVEVHNAKTKPREEQYNSTYRVVSVLTVLHQDWLNGKEYKCKVSNKGLPSSIEKTISKAKGQPREPQVCTLPPSRDELTKNQVSLSCAVKGFYPSDIAVEWESNGQPENNYKTTPPVLDSDGSFFLVSKLTVDKSRWQQGNVFSCSVMHEALHNHYTQKSLSLSPGK
chain 2: DIQMTQSPSSLSASVGDRVTITCRASQDIRNYLNWYQQKPGKAPKLLIYYTSRLHSGVPSRFSGSGSGTDFTFTISSLQPEDIATYYCQQGNTLPWTFGQGTKLEIKRGGGGSGGGGSGGGGSQVQLVQSGAEVKKPGSSVKVSCKASGGTFSGYTMNWVRQAPGQGLEWMGLINPYKGVSTYNGKFKDRVTITADKSTSTAYMELSSLRSEDTAVYYCARSGYYGDSDWYFDVWGQGTLVTVSSAAADKTHTCPPCPAPPVAGPSVFLFPPKPKDTLMISRTPEVTCVVVDVSHEDPEVKFNWYVDGVEVHNAKTKPREEQYNSTYRVVSVLTVLHQDWLNGKEYKCKVSNKGLPSSIEKTISKAKGQPREPQVYTLPPCRDELTKNQVSLWCLVKGFYPSDIAVEWESNGQPENNYKTTPPVLDSDGSFFLYSKLTVDKSRWQQGNVFSCSVMHEALHNHYTQKSLSLSPGK
notes: The scDb is monospecific for HER3; the CD3 site sits in the scFv arm; also called scDb3-43x3-43-Fc(hole)Δab + scFvhuU3-Fc(knob)Δab
B2: scDbhu225xhuU3-scFvhu225 (bispecific antibody)
chain: EVQLVESGGGLVQPGGSLRLSCAASGFSLTNYGVHWVRQAPGKGLEWLGVIWSGGNTDYNTPFTSRFTISRDNSKNTLYLQMNSLRAEDTAVYYCARALTYYDYEFAYWGQGTTVTVSSGGGGSDIQMTQSPSSLSASVGDRVTITCRASQDIRNYLNWYQQKPGKAPKLLIYYTSRLHSGVPSRFSGSGSGTDFTFTISSLQPEDIATYYCQQGNTLPWTFGQGTKLEIKRGGGGSGGGGSGGGGSQVQLVQSGAEVKKPGSSVKVSCKASGGTFSGYTMNWVRQAPGQGLEWMGLINPYKGVSTYNGKFKDRVTITADKSTSTAYMELSSLRSEDTAVYYCARSGYYGDSDWYFDVWGQGTLVTVSSGGGGSDIQLTQSPSFLSASVGDRVTITCRASQSIGTNIHWYQQKPGKAPKLLIKYASESISGVPSRFSGSGSGTEFTLTISSLQPEDFATYYCQQNNNWPTTFGAGTKLEIKRAAAGGSGGGGSGGGTEVQLVESGGGLVQPGGSLRLSCAASGFSLTNYGVHWVRQAPGKGLEWLGVIWSGGNTDYNTPFTSRFTISRDNSKNTLYLQMNSLRAEDTAVYYCARALTYYDYEFAYWGQGTTVTVSSGGGGSGGGGSGGGGSDIQLTQSPSFLSASVGDRVTITCRASQSIGTNIHWYQQKPGKAPKLLIKYASESISGVPSRFSGSGSGTEFTLTISSLQPEDFATYYCQQNNNWPTTFGAGTKLEIKRSLHHHHHH
notes: the end number was counted from the printed lines; The His tag is part of the entry; also called scDb-scFv; trivalent, bispecific bisAb targeting EGFR and CD3
B3: scDbhu225xhuU3 (bispecific antibody)
chain: EVQLVESGGGLVQPGGSLRLSCAASGFSLTNYGVHWVRQAPGKGLEWLGVIWSGGNTDYNTPFTSRFTISRDNSKNTLYLQMNSLRAEDTAVYYCARALTYYDYEFAYWGQGTTVTVSSGGGGSDIQMTQSPSSLSASVGDRVTITCRASQDIRNYLNWYQQKPGKAPKLLIYYTSRLHSGVPSRFSGSGSGTDFTFTISSLQPEDIATYYCQQGNTLPWTFGQGTKLEIKRGGGGSGGGGSGGGGSQVQLVQSGAEVKKPGSSVKVSCKASGGTFSGYTMNWVRQAPGQGLEWMGLINPYKGVSTYNGKFKDRVTITADKSTSTAYMELSSLRSEDTAVYYCARSGYYGDSDWYFDVWGQGTLVTVSSGGGGSDIQLTQSPSFLSASVGDRVTITCRASQSIGTNIHWYQQKPGKAPKLLIKYASESISGVPSRFSGSGSGTEFTLTISSLQPEDFATYYCQQNNNWPTTFGAGTKLEIKRAAAGGSGGGGSGGGTGGGGSLHHHHHH
notes: the end number was counted from the printed lines; The His tag is part of the entry; also called bispecific scDb targeting CD3 and EGFR
B4: scDb/Fab-Fc (1-1)+2, trivalent bispecific anti-HER3×anti-CD3 (bispecific antibody)
chain: QVQLQQSGPGLVKPSQTLSLTCAISGDSVSSNRAAWNWIRQSPSRGLEWLGRTYYRSKWYNDYAQSLKSRITINPDTPKNQFSLQLNSVTPEDTAVYYCARDGQLGLDALDIWGQGTMVTVSSGGGGSQAGLTQPPAVSVAPGQTASITCGRDNIGSRSVHWYQQKPGQAPVLVVYDDSDRPAGIPERFSGSNYENTATLTISRVEAGDEADYYCQVWGITSDHVVFGGGTKLTVLGGGGSGGGGSGGGGSQVQLQQSGPGLVKPSQTLSLTCAISGDSVSSNRAAWNWIRQSPSRGLEWLGRTYYRSKWYNDYAQSLKSRITINPDTPKNQFSLQLNSVTPEDTAVYYCARDGQLGLDALDIWGQGTMVTVSSGGGGSQAGLTQPPAVSVAPGQTASITCGRDNIGSRSVHWYQQKPGQAPVLVVYDDSDRPAGIPERFSGSNYENTATLTISRVEAGDEADYYCQVWGITSDHVVFGGGTKLTVLAAADKTHTCPPCPAPPVAGPSVFLFPPKPKDTLMISRTPEVTCVVVDVSHEDPEVKFNWYVDGVEVHNAKTKPREEQYNSTYRVVSVLTVLHQDWLNGKEYKCKVSNKGLPSSIEKTISKAKGQPREPQVCTLPPSRDELTKNQVSLSCAVKGFYPSDIAVEWESNGQPENNYKTTPPVLDSDGSFFLVSKLTVDKSRWQQGNVFSCSVMHEALHNHYTQKSLSLSPGK
heavy: QVQLVQSGAEVKKPGSSVKVSCKASGGTFSGYTMNWVRQAPGQGLEWMGLINPYKGVSTYNGKFKDRVTITADKSTSTAYMELSSLRSEDTAVYYCARSGYYGDSDWYFDVWGQGTLVTVSSASTKGPSVFPLAPSSKSTSGGTAALGCLVKDYFPEPVTVSWNSGALTSGVHTFPAVLQSSGLYSLSSVVTVPSSSLGTQTYICNVNHKPSNTKVDKKVEPKSCDKTHTCPPCPAPPVAGPSVFLFPPKPKDTLMISRTPEVTCVVVDVSHEDPEVKFNWYVDGVEVHNAKTKPREEQYNSTYRVVSVLTVLHQDWLNGKEYKCKVSNKGLPSSIEKTISKAKGQPREPQVYTLPPCRDELTKNQVSLWCLVKGFYPSDIAVEWESNGQPENNYKTTPPVLDSDGSFFLYSKLTVDKSRWQQGNVFSCSVMHEALHNHYTQKSLSLSPGK
light: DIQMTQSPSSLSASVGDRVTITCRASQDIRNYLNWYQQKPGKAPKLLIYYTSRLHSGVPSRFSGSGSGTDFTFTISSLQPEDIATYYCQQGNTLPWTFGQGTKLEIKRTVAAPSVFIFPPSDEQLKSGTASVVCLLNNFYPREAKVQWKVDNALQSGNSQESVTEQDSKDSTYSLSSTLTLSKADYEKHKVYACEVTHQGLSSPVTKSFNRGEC
notes: The scDb is monospecific for HER3; the CD3 site sits in the Fab arm; also called scDb3-43x3-43-Fc(hole)Δab + FdhuU3-Fc(knob)Δab + VLhuU3-CLK

Assays:
HER3 [1] = target: T1, HER3 (UniProt P21860 20-1342, limits assumed); test: flow cytometry, serial dilution on MCF-7 cells (HER3-expressing), PE anti-human Fc detection
T1 construct: whole, on cells; the cell lines are human tumor lines
Procedure: (§1) Binding of trivalent, bispecific fusion proteins to HER3-expressing (LIM1215, MCF-7) and CD3-expressing (Jurkat) cell lines was analyzed by flow cytometry. 2×10⁵ cells/well were incubated with a serial dilution of trivalent, bispecific antibodies for 1 h at 4° C. followed by detection using a PE-conjugated anti-human Fc antibody (Jackson ImmunoResearch Laboratories Inc). […] Concerning binding to the CD3-expressing cell line Jurkat, the trivalent, bispecific antibodies in the (1-2)+1 and in the (2−1)+1 orientation bound with EC₅₀ values in the low nanomolar range.

HER3 [2] = target: T1, HER3; test: flow cytometry, serial dilution on LIM1215 cells (HER3-expressing), PE anti-human Fc detection
Procedure: as §1

HER3 [3] = target: T1, HER3; test: cell-based or functional assay
CD3 [4] = target: T2, CD3 (UniProt P07766 23-207); test: flow cytometry, serial dilution on Jurkat cells (CD3-expressing), PE anti-human Fc detection
T2 construct: whole, on cells; on cells it stands in the TCR/CD3 complex; also called CD3 on Jurkat cells
Procedure: as §1

EGFR [5] = target: T3, EGFR (UniProt P00533 25-1210, limits assumed); test: cell-based or functional assay
EGFR [6] = target: T3, EGFR; test: flow cytometry, serial dilution on T-47-D cells (EGFR-expressing), PE anti-His detection
Procedure: (§2) Binding analysis of scDb and scDb-scFv was performed by flow cytometry using tumor cell lines with different EGFR-expression levels (Table 7). Adherent cells were washed with PBS and shortly trypsinized at 37° C. Trypsin was quenched with FCS-containing medium and removed by centrifugation (500×g, 5 min.). 1×10⁵ target cells/well (FaDu, Lim1215, T-47-D and SKBR-3) were incubated with a serial dilution of scDb or scDb-scFv for 1 h at 4° C. After removing excess of recombinant protein by washing with PBA (PBS, 2% FBS, and 0.02% sodium azide), bound protein was detected using PE-conjugated anti-hexahistidyl tag mAb (Miltenyi Biotec). Fluorescence was measured using MACSquant Analyzer 10 (Miltenyi Biotec) and data were analyzed using FlowJo (Tree Star). Relative median fluorescence intensities (MFI) were calculated as followed: relative MFI=((MFIₛₐₘₚₗₑ-(MFIdetection-MFIcells))/MFIcells).

EGFR [7] = target: T3, EGFR; test: flow cytometry, serial dilution on LIM1215 cells (EGFR-expressing), PE anti-His detection
Procedure: as §2

EGFR [8] = target: T3, EGFR; test: flow cytometry, serial dilution on FaDu cells (EGFR-expressing), PE anti-His detection
Procedure: as §2

CD3 [9] = target: T2, CD3; test: flow cytometry, serial dilution on Jurkat cells (CD3-expressing), PE anti-His detection
EGFR [10] = target: T3, EGFR; test: flow cytometry, serial dilution on SKBR-3 cells (EGFR-expressing), PE anti-His detection
Procedure: as §2

Binder	EC50 (HER3 [1])	EC50 (HER3 [2])	EC50 of proliferation of CD4+ T-cells, MCF-7 co-culture (HER3 [3])	EC50 of proliferation of CD8+ T-cells, MCF-7 co-culture (HER3 [3])	EC50 (CD3 [4])	EC50 of PBMC cytotoxicity on FaDu cells, E:T 10:1 (EGFR [5])	EC50 of PBMC cytotoxicity on LIM1215 cells, E:T 10:1 (EGFR [5])	EC50 of PBMC cytotoxicity on SKBR-3 cells, E:T 10:1 (EGFR [5])	EC50 of PBMC cytotoxicity on T-47-D cells, E:T 10:1 (EGFR [5])	EC50 (EGFR [6])	EC50 (EGFR [7])	EC50 (EGFR [8])	EC50 (CD3 [9])	EC50 (EGFR [10])
B1	0.4 nM	0.882 nM	0.393 nM	0.191 nM	0.7 nM	–	–	–	–	–	–	–	–	–
B2	–	–	–	–	–	0.009 nM	0.007 nM	0.002 nM	0.09 nM	0.09 nM	0.5 nM	0.5 nM	6.4 nM	0.3 nM
B3	–	–	–	–	–	> 10 nM	> 10 nM	> 10 nM	> 10 nM	1.1 nM	1.6 nM	1.4 nM	5.4 nM	2.3 nM
B4	0.7 nM	0.249 nM	–	–	8.7 nM	–	–	–	–	–	–	–	–	–
